Test system: K4 kissing-loop RNA reporter
Test: apparent KD of K4 kissing-loop reporter; higher = weaker reporter binding
Conditions: Eterna round: R107
Method: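 RNA-MaP round R107: designed RNA switches with theophylline, tryptophan, arginine or FMN aptamers are transcribed on-chip within common flanks. They are titrated with a labelled K4 kissing-loop RNA reporter in RNA-MaP buffer (100 mM Tris pH 7.5, 80 mM KCl, 4 mM MgCl2), without ligand or with the indicated ligand. Median apparent KD per design.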

[1] = input ligand: theophylline 20 uM
[2] = input ligand: tryptophan 2.4 mM
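Also: bound reporter read as fluorescence of individual clusters on recovered sequencing chips by microscopy, with normalized cluster intensities fitted with a binding model.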

Sequence | apparent KD of K4 kissing-loop reporter (input ligand: FMN 200 uM) | apparent KD of K4 kissing-loop reporter (input ligand: arginine 13.2 mM) | apparent KD of K4 kissing-loop reporter (input ligand: none) | apparent KD of K4 kissing-loop reporter [1] | apparent KD of K4 kissing-loop reporter [2]
GAUUCAGUGAUGUUGGAAGGCGAGCGGGAUACCAGCCAAGACUCAGGCCCUUGGCAGCCCACAUAUCCCACGUAGAUAGUAGCUC [Same State - Theophylline A (Freestyle 13)] | 230 nM | 104 nM | 147 nM | 134 nM | 142 nM
CGCAGUGAUGUUGCUAUUAUUCUUGGUUAACGAGGACCGGUACGGCCGCCACUCGAUGUCUGUCUAGUCCAGUGUUUUUUUGAGU [whbob_EX_Tryp_A_t8] | 351 nM | 467 nM | 506 nM | 579 nM | 228 nM
CAGCAUCUGAGUGGUAGCCAUUGAGAGAUGCAGGAUAUCUGGAAACAGAGAAGGGCAGUGAGUGAUGUUCACGGCUGGCUUGGUU | 154 nM | 132 nM | 179 nM | 133 nM | 110 nM
AAGUCAUAGGCAGGAUAUGCUUAGUAAUAAGGCCAUAUAUACGUAUAGAGUGAUGUUUUGUACCAGGCAGAAGGGCUACAUCAGU [FMN B Excl V8 (+2A)] | 541 nM | 276 nM | 373 nM | 532 nM | 544 nM
AGAUAGGGCUGAAGGAGCGUCGGAGAAGAGAAGAAGGAAUCCAGUGAUGUUGGAUAAAUCCGACAGGUAGGUCGCAGUUUUAUGA [hbob_SS_Arginine_B_2t138] | 108 nM | 126 nM | 99 nM | 109 nM | 115 nM
AAAGUUGCAAGUGAUACCAGACGAGUGAAGGGAAGUAAUUAAUUAGGAGUGAUGUUCCGCGUCCCUUGGCAGCACUUUGUAAUUU [Exclusion Theophylline B GF 25] | 155 nM | 165 nM | 152 nM | 184 nM | 115 nM
GUAUCGCUAGGAGGAUAUUUCAAAUAACCAAUAAAUGGUUAUACGGAGUGAUGUUCCGAUUUACGGAAAGAAGGCCUAGUGAUAC [FMN B 5] | 137 nM | 276 nM | 302 nM | 319 nM | 290 nM
UAAUAAAUUCCAGCGAUGUCACUCUUCGAAGGAGCGGACGAAAGUCCAGGUAGGUCGCGAAGAGUGAUGUUCUUCGCGGCGCUGG [Omei KL Arginine A Exc A v3] | 167 nM | 115 nM | 183 nM | 204 nM | 174 nM
AGGAUGUAGUGAUGUUAUAUAAAAGGUAAACGAGGACCGGUACGGCCGCCACUCGAAGCGGCUGCUAAGAGGGAAAGAAGAGGAA [ExTryptoA.E] | 496 nM | 464 nM | 570 nM | 684 nM | 371 nM
GUUAUGGACCUGGAUACCAGCUGGUACUAAGUGGGAGAAUGAAAGUGAUGUUUUCGUGCUAGCCCUUGGCAGCCAGCAACCCGCA [XTheo-B7] | 104 nM | 83.6 nM | 89.4 nM | 79.4 nM | 80.1 nM
AAUAAAAUCACGGCCGCCACUGAUUUCCAUAUUAGGAGUGAUGUUCCUAUGACUAUAUAAUUUAACAGGACCGGGUGAAUAUUUA [JR_ExcTryptoB_Sub012] | 110 nM | 112 nM | 108 nM | 111 nM | 93.5 nM
AGAGUUAUAUGAGGAUAUGGGAUAGUAACUGAGUGAGUUAUAGUGUAGUUUGUUUAGUGAUGUUAUUUAGAAGGCGUGAGUGAUG [wwwsemullin] | 162 nM | 121 nM | 147 nM | 182 nM | 107 nM
UAUUGCCACAGAGUGAUGUUCUGGCCGGAUACCAGCAUGCAAUUAUGCCCUUGGCAGCCGGAUGCGCGUCCAGCCACCGGGCCUG [theeternabot_exclusion_KL_Theo_A_29] | 1510 nM | 783 nM | 1310 nM | 1280 nM | 1140 nM
UUAGAGAUCUCAGGAUAUGAGUGAUGUUGGUGUCAAGAUCUGAGAUAGAAUUCUAUCUCAGAUCAAUCAGAAGGGAGAUCUCAUU [AK2.2 Exc FMN B] | 325 nM | 294 nM | 483 nM | 485 nM | 413 nM
UUAAAAUAUAUAAAUAAUAAGGGAAUUGAUACCAGACAGAAUUCUGUCCCUUGGCAGCAGUGAUGUUGUUGCAAUUUAAAUAAUU [AK1 Exc Theophylline A] | 104 nM | 148 nM | 112 nM | 136 nM | 85.7 nM
AAGAGGUAGGCGGCCGCCACUUGUUGUGAACACAUACGAGCCAGUGAUGUUGGUAUUGUGUGCGGAAGGACCGGGCCUACCUGAA [Exclusion - Tryptophan B (Freestyle 21)] | 146 nM | 173 nM | 136 nM | 46 nM | 140 nM
